The source of these data is patent US6521741 (FRANK KOENTGEN, dated 2003).

This test deals with T1, streptavidin (UniProt P22629 37-163, limits assumed).
T1 construct: Immobilised on column material; also called streptavidin column; streptavidin matrix
The test is described as follows: streptavidin column pull-down, SDS gel. An excerpt:
FIG. 11 is a photographic representation of LHL purified via kappa-loaded streptavidin column as shown on a silver stained 20% w/v polyacrylamide SDS PHAST-gel. LHL= LHL alone plus streptavidin matrix; LHL-kappa=LHL purified on the kappa-loaded streptavidin matrix; kappa=kappa alone bound to streptavidin matrix.

T1 sequence (P22629 37-163 limits assumed): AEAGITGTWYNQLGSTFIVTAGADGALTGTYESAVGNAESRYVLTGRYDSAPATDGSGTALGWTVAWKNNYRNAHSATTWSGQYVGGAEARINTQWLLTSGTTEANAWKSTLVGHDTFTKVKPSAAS

B1: LHL (designed binder)
chain: APKDNTEEVTIKANLIFANGSTQTAEFKGTFEKATSEAYAYADTLKKDNGEYTVDVADKGYTLNIKFAGKEATNRNTDGSTDYGILQINSRWGGLTLKEEVTIKANLIFANGSTQTAEFKGTFEKATSEAYAYADTLKKDNGEYTVDVADKGYTLNIKFAG
notes: Expressed in E. coli from pASK75; LHL carries no strep-tag; also called growth factor LHL
Turning to B1, the binding result is listed as “no binding”.
